Test [1] has as its target T1, Biotin Y46,48,51(SO3) PSGL-1(42-62) peptide (human, sulfotyrosine at Y46, Y48 and Y51; C-terminal Lys-biotin).
T1 construct: also called fully sulfated N-terminal PSGL-1 peptide
T1 peptide: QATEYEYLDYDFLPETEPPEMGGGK
Kind of test: capture ELISA; against parent 18F02. As for the experimental part: (§1) A typical ELISA for N-terminal PSGL-1 reactive humanized mAbs binding to Y_{46,48,51}(SO₃) PSGL-1₍₄₂₋₆₂₎ involved coating high binding half-well plates (Corning Cat. #3690) with 3 ug/mL/25 ul per well of the mAbs or with an isotype hG4 control in PBS, pH 7.4, overnight at 4° C. […] Biotinylated Y_{46,48,51}(SO₃) PSGL-1₍₄₂₋₆₂₎ was added (25 ul per well) in duplicate at 2.8 uM in assay buffer (blocking buffer containing 0.05% tween 20) and serially diluted into test and control (just blocked) wells, and the plate incubated for 45 min at 37° C. The plate was washed ×3 and an appropriate HRP-conjugated streptavidin was added (25 ul per well; Jackson Immunoresearch, Cat. #016-030-084) and the plate was incubated for 45 min at 37° C. […] For each antibody, an EC50 value was determined from sigmoidal fitted peptide titration curve.
(In general: In an ELISA, binding on a coated surface is turned into a signal by an enzyme label.)

For test [2], the target named is T1, Biotin Y46,48,51(SO3) PSGL-1(42-62) …. Kind of test: ELISA, plate-bound mAb captures biotin 3 x sY peptide. As for the experimental part:
as §1

Test [3] addresses T2, Recombinant human PSGL-1(ECD)-hFc1 (R&D Systems, Cat. 3345-PS) (human, UniProt Q14242 42-305).
T2 construct: Bought; Gln42-Val295 counted on AAC50061; also called PSGL-1-Fc; PSGL-1-hFc1 chimera; not shown: human IgG1 Fc, Pro100-Lys330
T2 sequence: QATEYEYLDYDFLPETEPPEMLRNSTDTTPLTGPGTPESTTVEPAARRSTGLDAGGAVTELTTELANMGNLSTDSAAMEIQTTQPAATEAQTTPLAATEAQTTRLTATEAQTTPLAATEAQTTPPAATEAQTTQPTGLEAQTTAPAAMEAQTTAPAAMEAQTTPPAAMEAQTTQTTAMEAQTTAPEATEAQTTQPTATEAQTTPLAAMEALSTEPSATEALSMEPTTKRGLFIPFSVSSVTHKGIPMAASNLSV
Kind of test: ELISA, plate-bound target. As for the experimental part:
(§2) Two ELISA methods were performed. One procedure detected mAb binding to its plate-immobilized target and the other measured the immobilized antibody's ability to capture biotinylated PSGL-1₄₂₋₆₂. […] The plate was incubated for 45 min at 37° C. Plates were washed 3 times with wash buffer (PBS containing 0.05% tween 20, pH 7.4) and a single concentration (2 to 500 nM) or serially diluted (0.002-100 nM) anti-PSGL-1 mAb was added (25 ul/well) in assay buffer into appropriate wells. The plate was incubated for 45 min at 37° C., washed 3 times, and an appropriate HRP-conjugated secondary antibody added (25 ul/well) (HRP goat anti-mouse or anti-human IgG). After 45 min incubation at 37° C., the plate was washed, and antibody bound to plate-immobilized target was determined at A450 nm using HRP substrate (3,3′,5,5′-etramethylbenzidine (TMB)). For each antibody, duplicate values were averaged and assay background was subtracted. Except for the following, ELISAs involving plate-immobilized mAb capturing of biotinylated PSGL-1₄₂₋₆₂ peptides was performed in the same manner as described above: 3 ug/mL/25 ul per well of mAb was coated directly onto microtiter plate wells; biotinylated unmodified or sulfotyrosine PSGL-1₄₂₋₆₂ was serially diluted (3 nM-3 uM) into appropriate wells, and antibody-bound peptide was detected using HRP-streptavidin (Jackson Immunoresearch, Cat. #016-030-084).

For test [4], the target named is T1, Biotin Y46,48,51(SO3) PSGL-1(42-62) …. Description: ELISA, plate-bound target. As for the experimental part:
as §2

For test [5], the target named is T3, Biotin sY48 PSGL-1(42-62) peptide (human, sulfotyrosine at Y48; C-terminal Lys-biotin).
T3 construct: also called sY48S
T3 peptide: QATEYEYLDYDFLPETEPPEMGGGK
Description: capture ELISA; against 3 x sY peptide. On the procedure:
as §2

Test [6] concerns the target T4, Biotin sY51 PSGL-1(42-62) peptide (human, sulfotyrosine at Y51; C-terminal Lys-biotin).
T4 construct: also called Y51(SO3) PSGL-1(42-62)
T4 peptide: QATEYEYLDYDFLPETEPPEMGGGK
Description: capture ELISA; against 3 x sY peptide. As for the experimental part:
as §2

Test [7] deals with T1, Biotin Y46,48,51(SO3) PSGL-1(42-62) …. Description: capture ELISA; against 3 x sY peptide. As for the experimental part:
as §2

In test [8] the target is T3, Biotin sY48 PSGL-1(42-62) peptide. Kind of test: ELISA, plate-bound mAb captures biotin peptide. On the procedure:
as §2

Test [9] concerns the target T4, Biotin sY51 PSGL-1(42-62) peptide. Description: ELISA, plate-bound mAb captures biotin peptide. On the procedure: as §2
The target of test [10] is T1, Biotin Y46,48,51(SO3) PSGL-1(42-62) …. Kind of test: ELISA, plate-bound mAb captures biotin peptide. On the procedure:
as §2

The target of test [11] is T5, Biotin sY46 PSGL-1(42-62) peptide (human, sulfotyrosine at Y46; C-terminal Lys-biotin).
T5 peptide: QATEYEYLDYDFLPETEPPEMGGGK
Description: ELISA, plate-bound mAb captures biotin peptide. On the procedure: as §2

B1: 18F02.001 (antibody, IgG4, V domains shown)
VH: QVQLVQSGAEVKKPGSSVKVSCKASGYTFTSYWMHWVRQAPGQGLEWMGMIHPNSGRTNYNEKFKSRVTITVDKSTSTAYMELSSLRSEDTAVYYCARSDYWGQGTLVTVSS
VL: DIVMTQTPLSLSVTPGQPASISCRSSKSLLHSDGITYLYWFLQKPGQSPQLLIYRMSNLASGVPDRFSGSGSGTDFTLKISRVEAEDVGVYYCAQMLEFPRTFGQGTKLEIK
notes: Humanised
A word on the EC50: it is the concentration needed to bring the measured effect to its halfway point. As to B1, the “N-term peptide EC50 (normalized)” value in test [1] came out at 2.3 fold. For the same molecule, the EC50 in test [2] came out at 160 nM.

B2: 18F02.002 (antibody, IgG4, V domains shown)
VH: EVQLVQSGAEVKKPGSSVKVSCKASGYTFTSYWMHWVRQAPGQGLEWMGMIHPNSGRTNYNEKFKSRVTITVDKSTSTAYMELSSLRSEDTAVYYCARSDYWGQGTLVTVSS
VL: DIVMTQTPLSLSVTPGQPASISCRSSKSLLHSDGITYLYWFLQKPGQSPQLLIYRMSNLASGVPDRFSGSGSGTDFTLKISRVEAEDVGVYYCAQMLEFPRTFGQGTKLEIK
notes: Humanised
Take B2: in test [1], the “N-term peptide EC50 (normalized)” value is 2.1 fold. In [2], this molecule had an EC50 of 150 nM.

B3: PSG3 (antibody, V domains shown)
VH: QVQLVQSGAEVKKPGSSVRVSCKASGGSFSSYGIHWVQQAPGQGLEWMGRIIPVLRIRNYAQKFHDRVTIDADTSTGTAYMELSSLTSDDTAVYYCAGSRQGVAPTGYWGQGTMVTVSS
VL: QAVLTQPSSLSASPGASASLTCNLRSGIDVGTYRIYWYQQKPGSPPQYLLRYKSDSDKQQGSGVPSRFSGTKDASANAGILLISGLQSEDEADYYCMIWHSNGWVFGGGTKLTVL
notes: Control anti-PSGL-1 mAb; only variable domains given
In the case of B3, the EC50 in test [3] is roughly 0.1 nM; in [4], 0.44 nM; in [8], roughly 600 nM; in test [9] it was roughly 600 nM; in test [10], 93 nM. Moreover, the “EC50/EC50 3x(SO3)Y” value in [5] is roughly 6 fold; in test [6] it was roughly 6 fold; in test [7] it was 1 fold.

B4: SELK1 (antibody, V domains shown)
VH: QVQLQQSGPGLVKPSQTLSLTCAISGDSVSSNIAAWHWIRLSPSRGLEWLGRTYYRRSKWNYDYALSVKSRININPDTSKNLFSLQLNSVTPEDTAVYYCTRGGGRAHSAWGQGTLVTVSS
VL: EIVLTQSPGTLSVSPGERATLSCRASQSVSRSHLAWYQQKPGQAPRLLIFGASSRATGIPDRFSGSGSGTDFTLTISRLEPEDFAVYYCQQYGRPGVTFGQGTKVEIK
notes: as for B3
For B4, the EC50 was determined as 0.02 nM in test [3]; 0.07 nM in [4]; 8.34 nM in test [8]; 129 nM in test [9]; 6.2 nM in test [10]; 167 nM in test [11].
